Values quoted from earlier work, collected in article doi:10.1101/2024.09.16.613101.

Key:
His57 = His57 (UniProt position 57, VVTAAHCGVTT); details: not stated (the structure used for prediction is described as the apoenzyme)
Cys46 = Cys46 (UniProt position 47, DFTFVCPTELG)
Glu28 = Glu28 (UniProt position 54, GYQLHEDGETV); experiment: NMR; details: native (folded) state, according to the title of ref 70; ligand state not stated
Glu58 = Glu58 (UniProt position 84, SSPYYEWPILS); experiment: NMR; details: native (folded) state, according to the title of ref 70; ligand state not stated
His27 = His27 (UniProt position 53, AGYQLHEDGET); experiment: NMR; details: native (folded) state, according to the title of ref 70; ligand state not stated
His40 = His40 (UniProt position 66, SNSYPHKYNNY); experiment: NMR; details: native (folded) state, according to the title of ref 70; ligand state not stated
His92 = His92 (UniProt position 118, AGVITHTGASG); experiment: NMR; details: native (folded) state, according to the title of ref 70; ligand state not stated

In the case of chymotrypsin, the pKa (His57) is listed as 7.5.
For “peroxiredoxin AhpC (alkyl hydroperoxide reductase subunit C) (bacterial (species not stated in the article))”, the pKa (Cys46) is listed as 5.94.
In the case of “ribonuclease T1 (Aspergillus oryzae (not stated in the article; inferred))”, the pKa (Glu28) is given as 5.61, the pKa (Glu58) is given as 3.96 and the pKa (His27) is given as 7.57. The pKa (His40) was 7.44 and the pKa (His92) was 7.31.
